Assay results as given in patent US10357539B2, “Use of peptides that block metadherin-SND1 interaction as treatment for cancer” (THE TRUSTEES OF PRINCETON UNIVERSITY, priority 2014, dated 2019).
“Also recorded” adds a separate entry of the source.

T1: SND1 (Homo sapiens, UniProt Q7KZF4)
T1 construct: 15 μg of His-SND1 (16-339) was added to the resin; made in house; host or cells: E. coli DH5α
T1 sequence (Q7KZF4 16-339): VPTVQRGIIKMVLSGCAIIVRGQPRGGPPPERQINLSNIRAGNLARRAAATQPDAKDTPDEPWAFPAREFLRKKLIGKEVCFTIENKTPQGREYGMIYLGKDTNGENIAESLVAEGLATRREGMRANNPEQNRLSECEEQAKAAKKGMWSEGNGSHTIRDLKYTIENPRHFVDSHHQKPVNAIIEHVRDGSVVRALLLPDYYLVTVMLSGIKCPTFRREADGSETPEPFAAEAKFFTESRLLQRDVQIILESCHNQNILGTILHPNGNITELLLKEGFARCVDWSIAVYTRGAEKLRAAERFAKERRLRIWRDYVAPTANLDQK

T2: SND1 (Homo sapiens, UniProt Q7KZF4)
T2 construct: Full-length HA-tagged SND1 was co-expressed with full-length Myc-tagged wild-type (WT) or mutant MTDH in HEK293T cells; expressed in transfected cells; host or cells: HEK293T
T2 sequence (Q7KZF4 1-910): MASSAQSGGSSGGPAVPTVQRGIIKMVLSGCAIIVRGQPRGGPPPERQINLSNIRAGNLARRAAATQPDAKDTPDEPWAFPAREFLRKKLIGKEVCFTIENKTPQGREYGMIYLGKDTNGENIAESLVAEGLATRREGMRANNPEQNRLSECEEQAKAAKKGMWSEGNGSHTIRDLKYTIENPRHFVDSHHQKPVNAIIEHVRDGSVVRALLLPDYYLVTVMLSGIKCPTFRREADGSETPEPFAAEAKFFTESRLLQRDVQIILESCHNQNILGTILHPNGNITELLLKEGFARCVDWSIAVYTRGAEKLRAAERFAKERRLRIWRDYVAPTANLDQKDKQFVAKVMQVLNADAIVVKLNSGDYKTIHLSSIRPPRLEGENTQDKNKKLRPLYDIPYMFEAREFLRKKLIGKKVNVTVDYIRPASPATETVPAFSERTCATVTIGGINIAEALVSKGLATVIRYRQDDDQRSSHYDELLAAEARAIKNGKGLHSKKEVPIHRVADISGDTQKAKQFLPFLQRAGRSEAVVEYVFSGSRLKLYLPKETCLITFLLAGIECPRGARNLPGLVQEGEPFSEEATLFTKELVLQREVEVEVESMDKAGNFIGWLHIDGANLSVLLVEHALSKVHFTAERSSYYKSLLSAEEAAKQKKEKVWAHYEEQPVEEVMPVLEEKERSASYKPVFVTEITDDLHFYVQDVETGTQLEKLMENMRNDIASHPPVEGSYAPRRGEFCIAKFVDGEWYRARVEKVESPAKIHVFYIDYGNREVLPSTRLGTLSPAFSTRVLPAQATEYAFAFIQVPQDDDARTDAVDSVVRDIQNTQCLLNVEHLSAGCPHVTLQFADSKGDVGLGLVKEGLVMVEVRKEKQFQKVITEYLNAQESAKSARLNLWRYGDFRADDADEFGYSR


Key:
SND1 [1] = molecular target: T1, SND1; assay: GST-mediated pull-down of SND1 by GST-tagged MTDH fragments and mutants; assay type: binding; conditions: SND1 (16-339); GST-tagged MTDH (364-582)
From the text: (§1) FIGS. 7A-E represents determination of key regions and residues mediating the MTDH-SND1 interaction. (FIG. 7A) Schematics of MTDH fragments and mutants with indicated SND1-binding capability. + indicates binding and − indicates no binding based on results shown below. Two putative nuclear localization signals are residues 432-451 for NLS2 and residues 561-580 for NLS3. In the enlarged view of the minimal binding region 386-407, 9 residues were targeted for mutagenesis in the current study. […] (FIG. 7B) Pulldown of His6-SND1AC by GST-tagged MTDH fragments with indicated boundaries. The bound proteins were examined by SDS-PAGE and visualized by Coomassie blue staining. (FIG. 7C) Pulldown of His6-SND1ΔC by GST-tagged WT or triple mutant MTDH fragments (364-582). For (FIG. 7B) and (FIG. 7C), 1/10 of the His6-SND1ΔC input was shown, and GST alone was used as a negative control. Representative results of 3 independent experiments are shown. (FIG. 7D, FIG. 7E) Lysates from HEK293T cells expressing the indicated ectopic human SND1, AGO2 or MTDH were immunoprecipitated with anti-Myc and immunoblotted with the indicated antibodies.
(§2) (FIG. 22A) In vitro pull-down of SND1 (16-339) by GST-tagged MTDH (364-582) harboring WT or mutant sequence. The proteins bound to GS4B were examined on SDS-PAGE and visualized by Coomassie blue staining. (FIG. 22B) In vitro pull-down of WT and mutant SND1 (16-339) by GST-tagged MTDH (364-582). The bound proteins were examined as in (FIG. 22A). For both (FIG. 22A) and (FIG. 22B), experiments were repeated three times; representative results are shown. The normalized percentage of binding was averaged from three experiments; mean±SEM was shown below the data. (FIG. 22C) HEK293T cells were transfected with human HA-SND1, WT Myc-MTDH or Myc-MTDH with indicated single point mutation. Lysates were immunoprecipitated with anti-Myc antibody and immunoblotted with the indicated antibodies. (FIG. 22D) HEK293T cells were transfected with human Myc-MTDH, WT HA-SND1 or mutant HA-SND1 with indicated single point mutations or deletions. Lysates were immunoprecipitated with anti-Myc and immunoblotted with the indicated antibodies.
GST-Mediated Pull-Down Assay: ˜20 μg of GST-MTDH (different truncation forms and site mutants) was bound to 10 μl of glutathione resin via GST tag. The resin was washed with 200 μl assay buffer (25 mM Tris, PH8.0, 150 mM NaCl, 3 mM DTT) three times to remove the excess unbound protein. 15 μg of His-SND1 (16-339) was added to the resin in a 100 μl volume suspended in the assay buffer with 2 mg/ml of BSA. The mixture was washed with 200 μl assay buffer twice before examined by SDS-PAGE, and visualized by Coomassie blue staining. The experiments were repeated 3 times and the ratio of SND1 associated with GST-MTDH was analyzed by ImageJ.

SND1 [2] = molecular target: T2, SND1; assay: Co-immunoprecipitation of full-length Myc-MTDH (WT or mutant) and HA-SND1 in HEK293T cells; assay type: cell-based; conditions: HEK293T cell lysates, immunoprecipitation and immunoblot
From the text: as §1, §2
Immunoprecipitation and western blot For immunoprecipitation (IP) experiments, cultured cells were washed in cold PBS and lysed in lysis buffer (20 mM Tris pH 7.4, 0.15 M NaCl, 1 mM EDTA, 1 mM EGTA, 1% Tx-100, 0.0025 M Na2P2O7, 1 mM α-glycerolphosphate, 1 mM Na3VO4, and 1 mM NaF) with an EDTA-free protease inhibitor mixture (Roche Applied Science) and PMSF. Cell lysates were then incubated on ice for 10 min, centrifuged, and precleared by incubating with protein A/G beads (Santa Cruz Biotechnology) for 1 h at 4° C. For IP bead preparation, 30 μl of protein A/G beads were incubated with 5 μg of antibodies for 2 h at 4° C. IPs were carried out for overnight at 4° C., and beads were centrifuged, washed and subsequently boiled for 5 min in SDS protein loading buffer to elute bound protein. IP lysates were subjected to western blotting with indicated antibodies.
Immunoprecipitation and western blot: For in vivo immunoprecipitation (IP) experiments, cultured cells were washed in cold PBS and lysed in lysis buffer (20 mM Tris pH 7.4, 0.15 M NaCl, 1 mM EDTA, 1 mM EGTA, 1% Tx-100, 0.0025 M Na2P2O7, 1 mM β-glycerolphosphate, 1 mM Na3VO4, and 1 mM NaF) with an EDTA-free protease inhibitor mixture (Roche Applied Science) and PMSF. Cell lysates were then incubated on ice for 10 min, centrifuged, and precleared by incubating with protein A/G beads (Santa Cruz Biotechnology) for 1 h at 4° C. For IP bead preparation, 30 μl of protein A/G beads were incubated with 5 μg of antibodies for 2 h at 4° C. IPs were carried out for overnight at 4° C., and beads were centrifuged, washed and subsequently boiled for 5 min in SDS protein loading buffer to elute bound protein. IP lysates were subjected to western blotting with indicated antibodies.

| Molecule | SND1-binding of MTDH (364-582) point mutants, in vitro (SND1 [1]) | interaction of full-length MTDH (WT or mutant) with HA-SND1 (SND1 [2]) |
| --- | --- | --- |
| W394D: MTDH single point mutant W394D (protein, UniProt Q86UE4 1-582, looked up, variant W394D) Protein LYRIC: MAARSWQDELAQQAEEGSARLREMLSVGLGFLRTELGLDLGLEPKRYPGWVILVGTGALGLLLLFLLGYGWAAACAGARKKRRSPPRKREEAAAVPAAAPDDLALLKNLRSEEQKKKNRKKLSEKPKPNGRTVEVAEGEAVRTPQSVTAKQPPEIDKKNEKSKKNKKKSKSDAKAVQNSSRHDGKEVDEGAWETKISHREKRQQRKRDKVLTDSGSLDSTIPGIENTITVTTEQLTTASFPVGSKKNKGDSHLNVQVSNFKSGKGDSTLQVSSGLNENLTVNGGGWNEKSVKLSSQISAGEEKWNSVSPASAGKRKTEPSAWSQDTGDANTNGKDWGRSWSDRSIFSGIGSTAEPVSQSTTSDYQWDVSRNQPYIDDEWSGLNGLSSADPNSDDNAPAEEWGNWVDEERASLLKSQEPIPDDQKVSDDDKEKGEGALPTGKSKKKKKKKKKQGEDNSTAQDTEELEKEIREDLPVNTSKTRPKQEKAFSLKTISTSDPAEVLVKNSQPIKTLPPATSTEPSVILSKSDSDKSSSQVPPILQETDKSKSNTKQNSVPPSQTKSETSWESPKQIKKKKKARRET | abolished or significantly reduced the interaction | completely and not |
| W401A: MTDH mutant W401A (protein, UniProt Q86UE4 1-582, looked up, variant W401A) Protein LYRIC: MAARSWQDELAQQAEEGSARLREMLSVGLGFLRTELGLDLGLEPKRYPGWVILVGTGALGLLLLFLLGYGWAAACAGARKKRRSPPRKREEAAAVPAAAPDDLALLKNLRSEEQKKKNRKKLSEKPKPNGRTVEVAEGEAVRTPQSVTAKQPPEIDKKNEKSKKNKKKSKSDAKAVQNSSRHDGKEVDEGAWETKISHREKRQQRKRDKVLTDSGSLDSTIPGIENTITVTTEQLTTASFPVGSKKNKGDSHLNVQVSNFKSGKGDSTLQVSSGLNENLTVNGGGWNEKSVKLSSQISAGEEKWNSVSPASAGKRKTEPSAWSQDTGDANTNGKDWGRSWSDRSIFSGIGSTAEPVSQSTTSDYQWDVSRNQPYIDDEWSGLNGLSSADPNSDWNAPAEEAGNWVDEERASLLKSQEPIPDDQKVSDDDKEKGEGALPTGKSKKKKKKKKKQGEDNSTAQDTEELEKEIREDLPVNTSKTRPKQEKAFSLKTISTSDPAEVLVKNSQPIKTLPPATSTEPSVILSKSDSDKSSSQVPPILQETDKSKSNTKQNSVPPSQTKSETSWESPKQIKKKKKARRET | abolished or significantly reduced the interaction | not |
| W401D: MTDH single point mutant W401D (protein, UniProt Q86UE4 1-582, looked up, variant W401D) Protein LYRIC: MAARSWQDELAQQAEEGSARLREMLSVGLGFLRTELGLDLGLEPKRYPGWVILVGTGALGLLLLFLLGYGWAAACAGARKKRRSPPRKREEAAAVPAAAPDDLALLKNLRSEEQKKKNRKKLSEKPKPNGRTVEVAEGEAVRTPQSVTAKQPPEIDKKNEKSKKNKKKSKSDAKAVQNSSRHDGKEVDEGAWETKISHREKRQQRKRDKVLTDSGSLDSTIPGIENTITVTTEQLTTASFPVGSKKNKGDSHLNVQVSNFKSGKGDSTLQVSSGLNENLTVNGGGWNEKSVKLSSQISAGEEKWNSVSPASAGKRKTEPSAWSQDTGDANTNGKDWGRSWSDRSIFSGIGSTAEPVSQSTTSDYQWDVSRNQPYIDDEWSGLNGLSSADPNSDWNAPAEEDGNWVDEERASLLKSQEPIPDDQKVSDDDKEKGEGALPTGKSKKKKKKKKKQGEDNSTAQDTEELEKEIREDLPVNTSKTRPKQEKAFSLKTISTSDPAEVLVKNSQPIKTLPPATSTEPSVILSKSDSDKSSSQVPPILQETDKSKSNTKQNSVPPSQTKSETSWESPKQIKKKKKARRET | abolished or significantly reduced the interaction | partially abolished the binding; also recorded: significantly reduced the binding; also recorded: strongly reduced the binding |
| W394A: MTDH mutant W394A (protein, UniProt Q86UE4 1-582, looked up, variant W394A) Protein LYRIC: MAARSWQDELAQQAEEGSARLREMLSVGLGFLRTELGLDLGLEPKRYPGWVILVGTGALGLLLLFLLGYGWAAACAGARKKRRSPPRKREEAAAVPAAAPDDLALLKNLRSEEQKKKNRKKLSEKPKPNGRTVEVAEGEAVRTPQSVTAKQPPEIDKKNEKSKKNKKKSKSDAKAVQNSSRHDGKEVDEGAWETKISHREKRQQRKRDKVLTDSGSLDSTIPGIENTITVTTEQLTTASFPVGSKKNKGDSHLNVQVSNFKSGKGDSTLQVSSGLNENLTVNGGGWNEKSVKLSSQISAGEEKWNSVSPASAGKRKTEPSAWSQDTGDANTNGKDWGRSWSDRSIFSGIGSTAEPVSQSTTSDYQWDVSRNQPYIDDEWSGLNGLSSADPNSDANAPAEEWGNWVDEERASLLKSQEPIPDDQKVSDDDKEKGEGALPTGKSKKKKKKKKKQGEDNSTAQDTEELEKEIREDLPVNTSKTRPKQEKAFSLKTISTSDPAEVLVKNSQPIKTLPPATSTEPSVILSKSDSDKSSSQVPPILQETDKSKSNTKQNSVPPSQTKSETSWESPKQIKKKKKARRET | abolished or significantly reduced the interaction | not |
